Bridge positions count the residues as written; N and C are the ends. Peptide text beside a SMILES is read from it. * marks the point of attachment. NOTA = O=C(O)CN1CCN(CC(=O)O)CCN(CC(=O)*)CC1
Assays:
gelatinase = tested on: gelatinase; parameters: method as in PMID 19424760; settings: cited from earlier work
SKOV3 tumor-bearing mice = assay: in vivo
Experimental: (§1) Tumor-bearing mice were prepared via a subcutaneous injection of cancer cells into the forelegs of female (SKOV3) or male (PC3) BALB/c nude mice (B&K Universal, Shanghai, China) at 6 weeks of age (body weight 18–20 g). When tumors were palpable, i.e., approximately 5 mm in diameter, the mice were used for biodistribution and PET imaging experiments. Biodistribution experiments were performed via intravenous administration of [^18F]AlF-NOTA-C6 (0.74 MBq) to mice bearing SKOV3 tumors. At 30, 60, and 120 min PI (n = 4 mice/timepoint), the mice were euthanized and the biological samples of interest (e.g., blood, tumor, muscle, lung, spleen, kidney, liver, and small intestine) were harvested and weighed. In the blocking experiments, the mice (n = 4) were pre-blocked with unlabeled C6 at 10 mg/kg body weight prior to the tracer injection; at 60 min PI of [^18F]AlF-NOTA-C6, the mice were euthanized as previously described. The radioactivity values of the tissues and injection standards were subsequently measured in a γ-counter. The samples were corrected for radioactive decay to calculate the percent of injected dose (ID) to grams of tissue (%ID/g) relative to a standard that represented the injected dose.

in vivo = assay: in vivo; parameters: species or system mice; settings: female, BALB/c nude, mouse, in vivo, iv, 0.74 MBq, total radioactivity
Experimental: as §1

SKOV3 tumors = assay: MicroPET imaging of SKOV3 tumor-bearing mice; assay type: in vivo; settings: 3.7 MBq via tail vein, non-blocked
Experimental: Tumor-bearing mice were prepared via a subcutaneous injection of cancer cells into the forelegs of female (SKOV3) or male (PC3) BALB/c nude mice (B&K Universal, Shanghai, China) at 6 weeks of age (body weight 18–20 g). When tumors were palpable, i.e., approximately 5 mm in diameter, the mice were used for biodistribution and PET imaging experiments. PET imaging was performed on 4 mice bearing SKOV3 tumors using a microPET scanner; prior to the tracer injection, 2 mice were pre-blocked with unlabeled C6 at 10 mg/kg body weight, and 2 mice were not pre-blocked. Pre-blocked and non-blocked mice were then administered 3.7 MBq of [^18F]AlF-NOTA-C6, via tail vein injection. At 30, 60, and 120 min post-injection (PI), the mice were anesthetized with 1–2% isoflurane, positioned supine, immobilized, and imaged. The scan time was 10 min. The images were reconstructed using the ordered subset expectation maximization method; no attenuation correction was used.

PC3 tumors = assay: MicroPET imaging of PC3 tumor-bearing mice; assay type: in vivo; settings: 3.7 MBq via tail vein, greatest radioactivity concentration at 30 min PI
[1] = assay type: physicochemical
Experimental: To examine in vitro stability, approximately 400 μL of [^18F]AlF-NOTA-C6 and 2 mL of physiological saline at room temperature, or 2 mL of human serum at 37°C, were mixed and incubated for 4 h. During the incubation, 200-μL samples were collected at 2 and 4 h. The samples were subsequently analyzed by radio-HPLC.

c(Lys-Ala-His-Trp-Gly-Phe-Thr-Leu-Asp)NH2 (sidechain bridge or staple) [C6]
increase in gelatinase inhibition relative to CTT (gelatinase): 4 fold

CC(C)C[C@@H]1NC(=O)[C@H]([C@@H](C)O)NC(=O)[C@H](Cc2ccccc2)NC(=O)CNC(=O)[C@H](Cc2c[nH]c3ccccc23)NC(=O)[C@H](Cc2c[nH]cn2)NC(=O)[C@H](C)NC(=O)[C@@H](NC(=O)CN2CCN(CC(=O)O)CCN(CC(=O)O)CC2)CCCCNC(=O)C[C@@H](C(N)=O)NC1=O [[^18F]AlF-NOTA-C6] ({NOTA}-KAHWGFTLD-NH2; lactam 1-9)
change of tumor tissue uptake after pre-injection of excess C6 (SKOV3 tumor-bearing mice; SKOV3 tumor-bearing mice, C6 10 mg/kg pre-block versus non-blocked, 60 min PI, P < 0.05): marked reduction
uptake ratio of tumor-to-blood (SKOV3 tumor-bearing mice; mouse, in vivo): > 2 fold
tissue uptake at 0.5 h (in vivo; Fat uptake): 0.44 ± 0.08 %ID/g
tissue uptake at 1 h (in vivo; Fat uptake): 0.18 ± 0.1 %ID/g
tissue uptake at 2 h (in vivo; Fat uptake): 0.12 ± 0.07 %ID/g
tissue uptake at 0.5 h (in vivo; Gut uptake): 0.47 ± 0.09 %ID/g
tissue uptake at 1 h (in vivo; Gut uptake): 0.13 ± 0.07 %ID/g
tissue uptake at 2 h (in vivo; Gut uptake): 0.12 ± 0.07 %ID/g
tissue uptake at 0.5 h (in vivo; Kidney uptake): 7.14 ± 0.05 %ID/g
tissue uptake at 1 h (in vivo; Kidney uptake): 4.55 ± 1.38 %ID/g
tissue uptake at 2 h (in vivo; Kidney uptake): 4.72 ± 0.31 %ID/g
tissue uptake at 0.5 h (in vivo; Muscle uptake): 0.57 ± 0.15 %ID/g
tissue uptake at 1 h (in vivo; Muscle uptake): 0.08 ± 0.04 %ID/g
tissue uptake at 2 h (in vivo; Muscle uptake): 0.21 ± 0.08 %ID/g
tissue uptake at 0.5 h (in vivo; Pancreas uptake): 0.35 ± 0.01 %ID/g
tissue uptake at 1 h (in vivo; Pancreas uptake): 0.16 ± 0.14 %ID/g
tissue uptake at 2 h (in vivo; Pancreas uptake): 0.09 ± 0.06 %ID/g
tissue uptake at 0.5 h (in vivo; Sexual gland uptake): 0.5 ± 0.12 %ID/g
tissue uptake at 1 h (in vivo; Sexual gland uptake): 0.05 ± 0.03 %ID/g
tissue uptake at 2 h (in vivo; Sexual gland uptake): 0.09 ± 0.02 %ID/g
tissue uptake at 0.5 h (in vivo; Stomach uptake): 0.49 ± 0.31 %ID/g
tissue uptake at 1 h (in vivo; Stomach uptake): 0.21 ± 0.19 %ID/g
tissue uptake at 2 h (in vivo; Stomach uptake): 0.07 ± 0.02 %ID/g
tissue uptake at 0.5 h (in vivo; Thyroid uptake): 0.88 ± 0.13 %ID/g
tissue uptake at 1 h (in vivo; Thyroid uptake): 0.16 ± 0.07 %ID/g
tissue uptake at 2 h (in vivo; Thyroid uptake): 0.3 ± 0.16 %ID/g
tissue uptake at 0.5 h (in vivo; Tumor uptake): 1.2 ± 0.24 %ID/g
tissue uptake at 1 h (in vivo; Tumor uptake): 0.75 ± 0.25 %ID/g
tissue uptake at 2 h (in vivo; Tumor uptake): 0.27 ± 0.14 %ID/g
tumor radioactivity concentration in PET (SKOV3 tumors; 30 and 60 min PI): visualized
uptake of the tumors in PET (SKOV3 tumors; 120 min PI): negligible
tumor detection via PET (PC3 tumors): detected
radioactive degradation products [1]: absence
radioactivity in the form of [18F]AlF-NOTA-C6 ([1]; physiological saline, room temperature, 4 h incubation, radio-HPLC): > 95%
